Source: FireProtDB (doi:10.1021/ja068849o)

Details: Escherichia coli (strain K12); pH 9.2; 37 °C; Urea; Fluorescence; Glycine 10 mM; reversible: Yes; whole UniProt chain shown

B1: Outer membrane protein A wild type, P0A910 (protein)
chain: MKKTAIAIAVALAGFATVAQAAPKDNTWYTGAKLGWSQYHDTGFINNNGPTHENQLGAGAFGGYQVNPYVGFEMGYDWLGRMPYKGSVENGAYKAQGVQLTAKLGYPITDDLDIYTRLGGMVWRADTKSNVYGKNHDTGVSPVFAGGVEYAITPEIATRLEYQWTNNIGDAHTIGTRPDNGMLSLGVSYRFGQGEAAPVVAPAPAPAPEVQTKHFTLKSDVLFNFNKATLKPEGQAALDQLYSQLSNLDPKDGSVVVLGYTDRIGSDAYNQGLSERRAQSVVDYLISKGIPADKISARGMGESNPVTGNTCDNVKQRAALIDCLAPDRRVEIEVKGIKDVVTQPQA
- denaturant m value: 2.2 kcal/mol/M
- denaturant midpoint (higher = more stable): 4.2 M
- unfolding free energy: 9.3 kcal/mol
